Reference: patent US20250262210A1 (TRUSTEES OF COLUMBIA UNIVERSITY IN THE CITY OF NEW YORK, published 2025)

T1: LZTR1 R810W-FLAG (human, UniProt Q8N653 1-840)
T1 construct: Stably expressed in U87 cells by lentivirus; also called LZTR1-FLAG-R810W; LZTR1 RW; not shown: FLAG tag
T1 sequence (looked up): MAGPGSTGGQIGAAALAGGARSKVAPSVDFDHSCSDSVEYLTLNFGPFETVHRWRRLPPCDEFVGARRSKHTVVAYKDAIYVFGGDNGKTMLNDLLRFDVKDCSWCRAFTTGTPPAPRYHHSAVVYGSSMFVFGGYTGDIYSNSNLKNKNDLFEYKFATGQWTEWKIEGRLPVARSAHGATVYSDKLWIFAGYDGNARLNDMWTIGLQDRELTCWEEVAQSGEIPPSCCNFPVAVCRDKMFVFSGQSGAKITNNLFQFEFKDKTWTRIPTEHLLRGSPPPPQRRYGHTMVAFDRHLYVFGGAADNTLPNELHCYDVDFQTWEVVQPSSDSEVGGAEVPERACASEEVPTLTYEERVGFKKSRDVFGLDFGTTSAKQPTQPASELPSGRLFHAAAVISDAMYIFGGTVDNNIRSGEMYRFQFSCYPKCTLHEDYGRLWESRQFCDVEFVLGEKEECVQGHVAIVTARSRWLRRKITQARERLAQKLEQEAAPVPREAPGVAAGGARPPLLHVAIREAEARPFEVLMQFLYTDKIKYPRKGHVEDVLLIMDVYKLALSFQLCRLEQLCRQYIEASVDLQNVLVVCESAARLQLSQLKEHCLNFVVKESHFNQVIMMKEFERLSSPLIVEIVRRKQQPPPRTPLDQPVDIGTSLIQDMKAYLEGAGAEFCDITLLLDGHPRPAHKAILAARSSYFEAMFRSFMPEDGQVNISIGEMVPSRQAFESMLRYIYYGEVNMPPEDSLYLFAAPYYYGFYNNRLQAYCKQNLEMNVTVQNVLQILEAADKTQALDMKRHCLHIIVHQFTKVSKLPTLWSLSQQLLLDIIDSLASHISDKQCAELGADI

T2: LZTR1-FLAG (human, UniProt Q8N653 1-840)
T2 construct: Expressed in HEK 293T, HeLa or U87 cells; used as cell lysate; also called LZTR1 wild type-FLAG; LZTR1 WT; not shown: FLAG tag at the C-terminus
T2 sequence (looked up): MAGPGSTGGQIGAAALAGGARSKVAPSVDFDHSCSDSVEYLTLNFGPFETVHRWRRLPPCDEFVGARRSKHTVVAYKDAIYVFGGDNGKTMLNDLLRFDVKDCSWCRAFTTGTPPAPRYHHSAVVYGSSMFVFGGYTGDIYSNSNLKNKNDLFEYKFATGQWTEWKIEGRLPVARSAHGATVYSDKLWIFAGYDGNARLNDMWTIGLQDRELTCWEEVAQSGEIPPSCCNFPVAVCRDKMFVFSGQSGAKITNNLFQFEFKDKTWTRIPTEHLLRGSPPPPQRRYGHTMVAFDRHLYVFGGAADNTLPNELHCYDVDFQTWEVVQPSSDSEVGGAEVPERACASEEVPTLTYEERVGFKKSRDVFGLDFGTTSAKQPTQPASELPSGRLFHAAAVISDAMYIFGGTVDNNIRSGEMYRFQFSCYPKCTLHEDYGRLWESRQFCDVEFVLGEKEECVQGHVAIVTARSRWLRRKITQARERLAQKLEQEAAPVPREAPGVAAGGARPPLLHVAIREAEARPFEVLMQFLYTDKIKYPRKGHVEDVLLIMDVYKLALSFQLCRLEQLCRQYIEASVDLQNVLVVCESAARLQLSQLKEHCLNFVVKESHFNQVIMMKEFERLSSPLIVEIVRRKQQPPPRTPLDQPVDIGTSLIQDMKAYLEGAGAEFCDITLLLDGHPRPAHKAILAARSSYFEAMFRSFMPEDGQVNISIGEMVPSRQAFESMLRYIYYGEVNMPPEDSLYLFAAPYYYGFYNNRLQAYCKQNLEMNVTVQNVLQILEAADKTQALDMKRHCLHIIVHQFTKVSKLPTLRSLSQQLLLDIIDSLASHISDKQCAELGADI


Experiments:
LZTR1 R810W-FLAG = target: T1, LZTR1 R810W-FLAG; test: IP/MS, LZTR1 R810W-FLAG, U87
Outline: (§1)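 Gel slices were reduced with 5 mM DTT, alkylated with 11 mM IAA and digested overnight at 37° C. with trypsin. Peptides were analysed on an Orbitrap Fusion Tribrid by LC-MS/MS.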

LZTR1-FLAG = target: T2, LZTR1-FLAG; test: IP/MS, LZTR1 wild type-FLAG, U87
Outline: as §1

Binder | binding result (LZTR1 R810W-FLAG) | binding result (LZTR1-FLAG)
CY P51A1 (other, human, UniProt Q16850 1-509, looked up, Printed as CY P51A1; read as CYP51A1) MAAAAGMLLLGLLQAGGSVLGQAMEKVTGGNLLSMLLIACAFTLSLVYLIRLAAGHLVQLPAGVKSPPYIFSPIPFLGHAIAFGKSPIEFLENAYEKYGPVFSFTMVGKTFTYLLGSDAAALLFNSKNEDLNAEDVYSRLTTPVFGKGVAYDVPNPVFLEQKKMLKSGLNIAHFKQHVSIIEKETKEYFESWGESGEKNVFEALSELIILTASHCLHGKEIRSQLNEKVAQLYADLDGGFSHAAWLLPGWLPLPSFRRRDRAHREIKDIFYKAIQKRRQSQEKIDDILQTLLDATYKDGRPLTDDEVAGMLIGLLLAGQHTSSTTSAWMGFFLARDKTLQKKCYLEQKTVCGENLPPLTYDQLKDLNLLDRCIKETLRLRPPIMIMMRMARTPQTVAGYTIPPGHQVCVSPTVNQRLKDSWVERLDFNPDRYLQDNPASGEKFAYVPFGAGRHRCIGENFAYVQIKTIWSTMLRLYEFDLIDGYFPTVNYTTMIHTPENPVIRYKRRSK | binds | binds
ELAC2 (other, human, UniProt Q9BQ52 17-826, looked up) SQGRTISQAPARRERPRKDPLRHLRTREKRGPSGCSGGPNTVYLQVVAAGSRDSGAALYVFSEFNRYLFNCGEGVQRLMQEHKLKVARLDNIFLTRMHWSNVGGLSGMILTLKETGLPKCVLSGPPQLEKYLEAIKIFSGPLKGIELAVRPHSAPEYEDETMTVYQIPIHSEQRRGKHQPWQSPERPLSRLSPERSSDSESNENEPHLPHGVSQRRGVRDSSLVVAFICKLHLKRGNFLVLKAKEMGLPVGTAAIAPIIAAVKDGKSITHEGREILAEELCTPPDPGAAFVVVECPDESFIQPICENATFQRYQGKADAPVALVVHMAPASVLVDSRYQQWMERFGPDTQHLVLNENCASVHNLRSHKIQTQLNLIHPDIFPLLTSFRCKKEGPTLSVPMVQGECLLKYQLRPRREWQRDAIITCNPEEFIVEALQLPNFQQSVQEYRRSAQDGPAPAEKRSQYPEIIFLGTGSAIPMKIRNVSATLVNISPDTSLLLDCGEGTFGQLCRHYGDQVDRVLGTLAAVFVSHLHADHHTGLPSILLQRERALASLGKPLHPLLVVAPNQLKAWLQQYHNQCQEVLHHISMIPAKCLQEGAEISSPAVERLISSLLRTCDLEEFQTCLVRHCKHAFGCALVHTSGWKVVYSGDTMPCEALVRMGKDATLLIHEATLEDGLEEEAVEKTHSTTSQAISVGMRMNAEFIMLNHFSQRYAKVPLFSPNFSEKVGVAFDHMKVCFGDFPTMPKLIPPLKALFAGDIEEMEERREKRELRQVRAALLSRELAGGLEDGEPQQKRAHTEEPQAKKVRAQ | binds | binds
FADS1 (other, human, UniProt O60427 1-444, looked up) MAPDPVAAETAAQGPTPRYFTWDEVAQRSGCEERWLVIDRKVYNISEFTRRHPGGSRVISHYAGQDATDPFVAFHINKGLVKKYMNSLLIGELSPEQPSFEPTKNKELTDEFRELRATVERMGLMKANHVFFLLYLLHILLLDGAAWLTLWVFGTSFLPFLLCAVLLSAVQAQAGWLQHDFGHLSVFSTSKWNHLLHHFVIGHLKGAPASWWNHMHFQHHAKPNCFRKDPDINMHPFFFALGKILSVELGKQKKKYMPYNHQHKYFFLIGPPALLPLYFQWYIFYFVIQRKKWVDLAWMITFYVRFFLTYVPLLGLKAFLGLFFIVRFLESNWFVWVTQMNHIPMHIDHDRNMDWVSTQLQATCNVHKSAFNDWFSGHLNFQIEHHLFPTMPRHNYHKVAPLVQSLCAKHGIEYQSKPLLSAFADIIHSLKESGQLWLDAYLHQ | binds | binds
GLE1 (other, human, UniProt Q53GS7 1-698, looked up) MPSEGRCWETLKALRSSDKGRLCYYRDWLLRREDVLEECMSLPKLSSYSGWVVEHVLPHMQENQPLSETSPSSTSASALDQPSFVPKSPDASSAFSPASPATPNGTKGKDESQHTESMVLQSSRGIKVEGCVRMYELVHRMKGTEGLRLWQEEQERKVQALSEMASEQLKRFDEWKELKQHKEFQDLREVMEKSSREALGHQEKLKAEHRHRAKILNLKLREAEQQRVKQAEQERLRKEEGQIRLRALYALQEEMLQLSQQLDASEQHKALLKVDLAAFQTRGNQLCSLISGIIRASSESSYPTAESQAEAERALREMRDLLMNLGQEITRACEDKRRQDEEEAQVKLQEAQMQQGPEAHKEPPAPSQGPGGKQNEDLQVKVQDITMQWYQQLQDASMQCVLTFEGLTNSKDSQAKKIKMDLQKAATIPVSQISTIAGSKLKEIFDKIHSLLSGKPVQSGGRSVSVTLNPQGLDFVQYKLAEKFVKQGEEEVASHHEAAFPIAVVASGIWELHPRVGDLILAHLHKKCPYSVPFYPTFKEGMALEDYQRMLGYQVKDSKVEQQDNFLKRMSGMIRLYAAIIQLRWPYGNRQEIHPHGLNHGWRWLAQILNMEPLSDVTATLLFDFLEVCGNALMKQYQVQFWKMLILIKEDYFPRIEAITSSGQMGSFIRLKQFLEKCLQHKDIPVPKGFLTSSFWRS | binds | binds

Continued, values first:

binding result (LZTR1 R810W-FLAG) | binding result (LZTR1-FLAG) | Binder
binds | binds | GBE1 (other, human, UniProt Q04446 2-702, looked up) AAPMTPAARPEDYEAALNAALADVPELARLLEIDPYLKPYAVDFQRRYKQFSQILKNIGENEGGIDKFSRGYESFGVHRCADGGLYCKEWAPGAEGVFLTGDFNGWNPFSYPYKKLDYGKWELYIPPKQNKSVLVPHGSKLKVVITSKSGEILYRISPWAKYVVREGDNVNYDWIHWDPEHSYEFKHSRPKKPRSLRIYESHVGISSHEGKVASYKHFTCNVLPRIKGLGYNCIQLMAIMEHAYYASFGYQITSFFAASSRYGTPEELQELVDTAHSMGIIVLLDVVHSHASKNSADGLNMFDGTDSCYFHSGPRGTHDLWDSRLFAYSSWEILRFLLSNIRWWLEEYRFDGFRFDGVTSMLYHHHGVGQGFSGDYSEYFGLQVDEDALTYLMLANHLVHTLCPDSITIAEDVSGMPALCSPISQGGGGFDYRLAMAIPDKWIQLLKEFKDEDWNMGDIVYTLTNRRYLEKCIAYAESHDQALVGDKSLAFWLMDAEMYTNMSVLTPFTPVIDRGIQLHKMIRLITHGLGGEGYLNFMGNEFGHPEWLDFPRKGNNESYHYARRQFHLTDDDLLRYKFLNNFDRDMNRLEERYGWLAAPQAYVSEKHEGNKIIAFERAGLLFIFNFHPSKSYTDYRVGTALPGKFKIVLDSDAAEYGGHQRLDHSTDFFSEAFEHNGRPYSLLVYIPSRVALILQNVDLPN
binds | binds | DHX32 (other, human, UniProt Q7L7V1 1-743, looked up) MEEEGLECPNSSSEKRYFPESLDSSDGDEEEVLACEDLELNPFDGLPYSSRYYKLLKEREDLPIWKEKYSFMENLLQNQIVIVSGDAKCGKSAQVPQWCAEYCLSIHYQHGGVICTQVHKQTVVQLALRVADEMDVNIGHEVGYVIPFENCCTNETILRYCTDDMLQREMMSNPFLGSYGVIILDDIHERSIATDVLLGLLKDVLLARPELKLIINSSPHLISKLNSYYGNVPVIEVKNKHPVEVVYLSEAQKDSFESILRLIFEIHHSGEKGDIVVFLACEQDIEKVCETVYQGSNLNPDLGELVVVPLYPKEKCSLFKPLDETEKRCQVYQRRVVLTTSSGEFLIWSNSVRFVIDVGVERRKVYNPRIRANSLVMQPISQSQAEIRKQILGSSSSGKFFCLYTEEFASKDMTPLKPAEMQEANLTSMVLFMKRIDIAGLGHCDFMNRPAPESLMQALEDLDYLAALDNDGNLSEFGIIMSEFPLDPQLSKSILASCEFDCVDEVLTIAAMVTAPNCFSHVPHGAEEAALTCWKTFLHPEGDHFTLISIYKAYQDTTLNSSSEYCVEKWCRDYFLNCSALRMADVIRAELLEIIKRIELPYAEPAFGSKENTLNIKKALLSGYFMQIARDVDGSGNYLMLTHKQVAQLHPLSGYSITKKMPEWVLFHKFSISENNYIRITSEISPELFMQLVPQYYFSNLPPSESKDILQQVVDHLSPVSTMNKEQQMCETCPETEQRCTLQ
